Results from US20050153376A1 (AUCKLAND UNISERVICES, published 2005).
Read-outs that look alike come from different tables or passages of the source.

B1: recombinant TSST (other)
chain: STNDNIKDLLDWYSSGSDTFTNSEVLDNSLGSMRIKNTDGSISLIIFPSPYYSPAFTKGEKVDLNTKRTKKSQHTSEGTYIHFQISGVTNTEKLPTPIELPLKVKVHGKDSPLKYGPKFDKKQLAISTLDFEIRHQLTQIHGLYRSSDKTGGYWKITMNDGSTYQSDLSKKFEYNTEKPPINIDEIKTIEAEIN
B2: recombinant SEB (other)
chain: ESQPDPKPDELHKSSKFTGLMENMKVLYDDNHVSAINVKSIDQFLYFDLIYSIKDTKLGNYDNVRVEFKNKDLADKYKDKYVDVFGANYYYQCYFSKKTNDINSHQTDKRKTCMYGGVTEHNGNQLDKYRSITVRVFEDGKNLLSFDVQTNKKKVTAQELDYLTRHYLVKNKKLYEFNNSPYETGYIKFIENENSFWYDMMPAPGDKFDQSKYLMMYNDNKMVDSKDVKIEVYLTTKKK
B3: recombinant SPE-G superantigen (mature) (other)
chain: DENLKDLKRSLRFAYNITPCDYENVEIAFVTTNSIHINTKQKRSECILYVDSIVSLGITDQFIKGDKVDVFGLPYNFSPPYVDNIYGGIVKHSNQGNKSLQFVGILNQDGKETYLPSEAVRIKKKQFTLQEFDFKIRKFLMEKYNIYDSESRYTSGSLFLATKDSKHYEVDLFNKDDKLLSRDSFFKRYKDNKIFNSEEISHFDIYLKTH
B4: recombinant SEA (other)
chain: SEKSEEINEKDLRKKSELQGTALGNLKQIYYYNEKAKTENKESHDQFLQHTILFKGFFTDHSWYNDLLVDFDSKDIVDKYKGKKVDLYGAYYGYQCAGGTPNKTACMYGGVTLHDNNRLTEEKKVPINLWLDGKQNTVPLETVKTNKKNVTVQELDLQARRYLQEKYNLYNSDVFDGKVQRGLIVFHTSTEPSVNYDLFGAQGQYSNTLLRIYRDNKTINSENMHIDIYLYTS

Experiments:
[1] = target: MHC class II (HLA-DR1) on human LG-2 cells (human); assay: Scatchard analysis, 125I-labelled toxin on LG-2 cells
[2] = target: MHC class II (HLA-DR1) on human LG-2 cells (human)
[3] = target: MHC class II (HLA-DR1) on human LG-2 cells (human); assay: Scatchard analysis, 125I-labelled toxin on LG-2 cells; low affinity site
[4] = target: MHC class II (HLA-DR1) on human LG-2 cells (human); assay: Scatchard analysis, 125I-labelled toxin on LG-2 cells; high affinity site

| Binder | Kd [1] [nM] | Kd [2] [nM] | Kd [3] [nM] | Kd [4] [nM] |
| --- | --- | --- | --- | --- |
| B1 | 130 |  |  |  |
| B2 | 340 |  |  |  |
| B3 |  | 15 to 65 | 1000 | 16 |
| B4 |  |  | 1000 | 36 |
